Measured values published in patent US20240024501A1 (BONUM THERAPEUTICS, published 2024).
Numbering of substitutions follows the chain as printed. Like-named read-outs stand apart in the source and are kept apart here.

T1: LRRC15-hFc (Sino Biologicals, 15786-H02H) (UniProt Q8TF66 22-538)
T1 construct: also called LRRC15-Fc
T1 sequence (looked up): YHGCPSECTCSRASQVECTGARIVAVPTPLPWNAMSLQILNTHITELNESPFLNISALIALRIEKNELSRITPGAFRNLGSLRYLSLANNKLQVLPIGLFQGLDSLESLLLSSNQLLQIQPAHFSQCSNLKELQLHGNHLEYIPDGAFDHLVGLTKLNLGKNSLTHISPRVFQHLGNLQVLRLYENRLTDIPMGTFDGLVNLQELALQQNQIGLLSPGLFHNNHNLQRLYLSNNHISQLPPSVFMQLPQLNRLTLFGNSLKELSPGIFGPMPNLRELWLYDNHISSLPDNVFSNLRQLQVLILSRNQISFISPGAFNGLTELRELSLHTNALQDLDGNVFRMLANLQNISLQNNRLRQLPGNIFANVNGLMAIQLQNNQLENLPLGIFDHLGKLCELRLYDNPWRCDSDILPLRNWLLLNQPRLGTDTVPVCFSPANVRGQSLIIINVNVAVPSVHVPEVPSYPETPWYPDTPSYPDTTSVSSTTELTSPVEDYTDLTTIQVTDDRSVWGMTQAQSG

B1: AF635 (scFv)
scFv: MSTSTEQKLISEEDLQVQLVQSGAEVKKPGASVKVSCKASGYTFTGYYIHWVRQAPGQGLEWMGIINPSGGSTRYAQKFQGRVTMTRDTSTSTVYMELSSLRSEDTAVYYCARSLFPTIFGVEVAFDIWGQGTLVTVSSASGGGGSGGGGSGGGGSHASDIQMTQSPSSLSASVGDRVTITCRASQSIRTYLNWYQQKPGKAPKLLIYSASNLQSGVPSRFSGSGSGTDFTLTISSLQPEDFATYYCQQANSFPFTFGPGTKVDIKGKPIPNPLLGLDST
B2: AF636 (scFv)
scFv: MSTSTEQKLISEEDLQVQLVQSGAEVKKPGASVKVSCKASGYSFTSYYLHWVRQAPGQGLEWMGRISPRSGGTKNAQNFQGRVTMTRDTSTSTVYMELSSLRSEDTAVYYCVRSLFPTIFGVEVAFDIWGQGTLVTVSSASGGGGSGGGGSGGGGSHASDIQMTQSPSSLSASVGDRVTITCRASQSISSWLAWYQQKPGKAPKLLIYYASSLQSGVPSRFSGSGSGTDFTLTISSLQPEDFATYYCQQGYQYPYTFGQGTKLEIKGKPIPNPLLGLDST
B3: A03 (scFv)
scFv: MSTSTQVQLVQSGAEVKKPGASVKVSCKASGYTFTGYYMHWVRQAPGQGLEWMGWMDPNNDDADYAQRFQGRVTMTRDTSTSTVYMELSSLRSEDTAVYYCASLAAAGPYYYYGMDVWGQGTLVTVSSASGGGGSGGGGSGGGGSHASDIQMTQSPSSLSASVGDRVTITCRASQSINNYLNWYQQKPGKAPKLLIYGASNLETGVPSRFSGSGSGTDFTLTISSLQPEDFATYYCQQSYGTPLTFGGGTKVEIKRAAAGSGSEQKLISEEDLGKPIPNPLLGLDST
B4: B07 (scFv)
scFv: MSTSTQVQLVQSGAEVKKPGASVKVSCKASGYTFTGYYMHWVRQAPGQGLEWMGWMDPNNDDADYAQRFQGRVTMTRDTSTSTVYMELSSLRSEDTAVYYCASLAAAGPYYYYGMDVWGQGTLVTVSSASGGGGSGGGGSGGGGSHASDIQMTQSPSSLSASVGDRVTITCQASQDISNYLNWYQQKPGKAPKLLIYGASILEAGVPSRFSGSGSGTDFTLTISSLQPEDFATYYCQQSYSAPITFGQGTRLEIKRAAAGSGSEQKLISEEDLGKPIPNPLLGLDST
B5: i47_A12 (scFv)
scFv: MSTSTQVQLVQSGAEVKKPGSSVKVSCKASGYTFINNDINWVRQAPGQGLEWMGGTIPIFGVHIYAQKFQGRVTITADESTSTAYMELSSLRSEDTAVYYCVSSVGAGAYYYYGMDVWGQGTLVTVSSASGGGGSGGGGSGGGGSHASDIQMTQSPSSLSASVGDRVTITCQASQDISNYLNWYQQKPGKAPKLLIYAASSLQSGVPSRFSGSGSGTDFTLTISSLQPEDFATYYCQQSYSLPYTFGQGTRLEIKRAAAGSGSEQKLISEEDLGKPIPNPLLGLDST
B6: i47_A11 (scFv)
scFv: MSTSTQVQLVQSGAEVKKPGSSVKVSCKASGYTFTSYDINWVRQAPGQGLEWMGTINPSDGDTTYAQKFQGRVTITADESTSTAYMELSSLRSEDTAVYYCARVGGWGIYYYYGMDVWGQGTLVTVSSASGGGGSGGGGSGGGGSHASDIQMTQSPSSLSASVGDRVTITCRASQSINSWLAWYQQKPGKAPKLLIYAASSLQSGVPSRFSGSGSGTDFTLTISSLQPEDFATYYCQQTYTVPFSFGQGTKLEIKRAAAGSGSEQKLISEEDLGKPIPNPLLGLDST
B7: IFNAR2-Biotin (receptor)
chain: ISYDSPDYTDESCTFKISLRNFRSILSWELKNHSIVPTHYTLLYTIMSKPEDLKVVKNCANTTRSFCDLTDEWRSTHEAYVTVLEGFSGNTTLFSCSHNFWLAIDMSFEPPEFEIVGFTNHINVMVKFPSIVEEELQFDLSLVIEEQSEGIVKKHKPEIKGNMSGNFTYIIDKLIPNTNYCVSVYLEHSDEQAVIKSPLKCTLLPPGQESESAESAK
modifications: biotinylated
notes: also called biotinylated interferon receptor (IFNAR2)
B8: Anti-IFN control (SEQ ID NO: 30) (scFv)
scFv: EVQLVESGGGLVQPGGSLRLSCATSGYTFTEYIIHWVRQAPGKGLEWVASINPDYDITNYNQRFKGRFTISLDKSKRTAYLQMNSLRAEDTAVYYCASWISDFFDYWGQGTLVTVSSASGGGGSGGGGSGGGGSHASDIQMTQSPSSLSASVGDRVTITCRASQSVSTSSYSYMHWYQQKPGKAPKVLISYASNLESGVPSRFSGSGSGTDFTLTISSLQPEDFATYYCQHSWGIPRTFGQGTKVEIK
notes: control scFv; also called Anti-IFNα control
B9: PDL1-IFN-R01-B12 (scFv)
scFv: QVQLVQSGAEVKKPGASVKVSCKASGNTFTDYYMHWVRQAPGQGLEWMGWMNPNSGNTGYAQKFQGRVTMTRDTSTSTVYMELSSLRSEDTAVYYCARSLFPTIFGVEVAFDIWGQGTLVTVSSASGGGGSGGGGSGGGGSHASDIQMTQSPSSLSASVGDRVTITCQASQDISNYLNWYQQKPGKAPKLLIYAASSLQSGVPSRFSGSGSGTDFTLTISSLQPEDFATYYCQQSYSTPPTFGQGTRLEIK
notes: expressed cell-free as Myc tag + scFv + V5 tag
B10: PDL1-IFN-R01-A11 (scFv)
scFv: B9 scFv with N27G, T30S, D31S, S174T, Q199E, T238I, P240I
notes: as for B9
B11: PDL1-IFN-R01-B09 (scFv)
scFv: B9 scFv with N27G, D31G, M51V, T238P, R247K
notes: as for B9

Columns and labels:
[1] = molecular target: T2, PDL1-hFc-Avi (Acro Biosystems, PDL-H82F2) (UniProt Q9NZQ7 19-238, biotinylated); assay: ELISA: scFv captured at saturating level on anti-V5, titrated PDL1-hFc-Avi, streptavidin-HRP
AF33 [2] = molecular target: T3, AF33; assay: ELISA: scFv captured at saturating level on anti-V5, titrated biotinylated AF33 (IL-15 fusion), streptavidin-HRP
T3 construct: also called IL-15; IL15

AF33 [3] = molecular target: T3, AF33; assay: as above; remark: listed apart in the source
[4] = molecular target: T2, PDL1-hFc-Avi (Acro Biosystems, …); assay: ELISA: scFv captured at saturating level on anti-V5, titrated PDL1-hFc-Avi, streptavidin-HRP; remark: listed apart in the source
[5] = molecular target: T1, LRRC15-hFc (Sino Biologicals, …); assay: ELISA (Example 33): cell-free expressed scFv on LRRC15; x axis Log (concentration, nM)
AF3099 = molecular target: T4, AF3099; assay: ELISA as in Example 9: dilution series of the IFN-scFv complex captured on anti-V5, probed with IFNAR2-Biotin with or without PD-L1, streptavidin-HRP
T4 construct: IFNα-linker-DBA scFv variant complex

PD-L1 (Eu-labeled) = molecular target: T5, PD-L1 (Eu-labeled) (UniProt Q9NZQ7 19-238, limits assumed, Eu label); assay: HTRF
T5 construct: also called Eu-labeled PD-L1

| Binder | binding result [5] | PDL1 Binding (HTRF signal) (PD-L1 (Eu-labeled)) | further results |
| --- | --- | --- | --- |
| B1 | – | – | binding result [1]: binds; binding result (AF33 [2]): binds |
| B2 | – | – | binding result (AF33 [3]): binds; binding result [4]: binds |
| B3 | binds | – | – |
| B4 | binds | – | – |
| B5 | binds | – | – |
| B6 | binds | – | – |
| B7 | – | – | binding result (AF3099): no binding (tested: 0.5 % IFN-scFv) |
| B8 | – | 416 | – |
| B9 | – | 2980 | – |
| B10 | – | 2960 | – |
| B11 | – | 1380 | – |
